Data from the supplement of paper PMC9112550, “Optimization of the antimicrobial peptide Bac7 by deep mutational scanning” (BMC Biology, 2022).

Tested on: Escherichia coli TOP10
Assay: shrunken log2 fold change of peptide-encoding DNA abundance (4.5 h post-induction vs induction); higher = less antimicrobial activity (less host growth inhibition)
Conditions: time post-induction: 4.5 h; library: site-saturation at positions 5, 18, 19, 20
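Further: peptides expressed intracellularly from a pBAD plasmid library in pooled LB shake-flask culture, induced with 0.3% L-arabinose, DNA abundance read by NGS, three biological replicates, DESeq2 with apeglm shrinkage.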

## RRIRMRPPRLPRPRPRPAQRPRP
  shrunken log2 fold change: 0.987

## RRIRMRPPRLPRPRPRPASKPRP
  shrunken log2 fold change: 0.0582

## RRIRMRPPRLPRPRPRPATQPRP
  shrunken log2 fold change: 1.14

## RRIRMRPPRLPRPRPRPATYPRP
  shrunken log2 fold change: 0.0281

## RRIRMRPPRLPRPRPRPAVHPRP
  shrunken log2 fold change: 0.0654

## RRIRMRPPRLPRPRPRPAVSPRP
  shrunken log2 fold change: 0.494

## RRIRMRPPRLPRPRPRPAWEPRP
  shrunken log2 fold change: 0.655

## RRIRMRPPRLPRPRPRPAYFPRP
  shrunken log2 fold change: -0.197

## RRIRMRPPRLPRPRPRPAYQPRP
  shrunken log2 fold change: -0.233

## RRIRMRPPRLPRPRPRPCAIPRP
  shrunken log2 fold change: -0.216

## RRIRMRPPRLPRPRPRPCAKPRP
  shrunken log2 fold change: 0.207

## RRIRMRPPRLPRPRPRPCALPRP
  shrunken log2 fold change: 0.738

## RRIRMRPPRLPRPRPRPCCDPRP
  shrunken log2 fold change: 0.393

## RRIRMRPPRLPRPRPRPCCMPRP
  shrunken log2 fold change: -0.167

## RRIRMRPPRLPRPRPRPCDFPRP
  shrunken log2 fold change: -0.121

## RRIRMRPPRLPRPRPRPCDYPRP
  shrunken log2 fold change: -0.163

## RRIRMRPPRLPRPRPRPCFGPRP
  shrunken log2 fold change: -0.23

## RRIRMRPPRLPRPRPRPCGLPRP
  shrunken log2 fold change: 0.533

## RRIRMRPPRLPRPRPRPCGPPRP
  shrunken log2 fold change: 0.481

## RRIRMRPPRLPRPRPRPCHAPRP
  shrunken log2 fold change: -0.00133

## RRIRMRPPRLPRPRPRPCHLPRP
  shrunken log2 fold change: -0.0745

## RRIRMRPPRLPRPRPRPCHQPRP
  shrunken log2 fold change: -0.0062

## RRIRMRPPRLPRPRPRPCIPPRP
  shrunken log2 fold change: -0.159

## RRIRMRPPRLPRPRPRPCLRPRP
  shrunken log2 fold change: -0.0737

## RRIRMRPPRLPRPRPRPCMWPRP
  shrunken log2 fold change: 0.138

## RRIRMRPPRLPRPRPRPCNAPRP
  shrunken log2 fold change: 0.0226

## RRIRMRPPRLPRPRPRPCNLPRP
  shrunken log2 fold change: -0.369

## RRIRMRPPRLPRPRPRPCPNPRP
  shrunken log2 fold change: 0.0197

## RRIRMRPPRLPRPRPRPCPTPRP
  shrunken log2 fold change: 0.11

## RRIRMRPPRLPRPRPRPCTLPRP
  shrunken log2 fold change: -0.192

## RRIRMRPPRLPRPRPRPCTYPRP
  shrunken log2 fold change: -0.00141

## RRIRMRPPRLPRPRPRPCVIPRP
  shrunken log2 fold change: -0.04

## RRIRMRPPRLPRPRPRPCVWPRP
  shrunken log2 fold change: 0.245

## RRIRMRPPRLPRPRPRPCWKPRP
  shrunken log2 fold change: -0.0216

## RRIRMRPPRLPRPRPRPCYFPRP
  shrunken log2 fold change: -0.289

## RRIRMRPPRLPRPRPRPDAHPRP
  shrunken log2 fold change: 0.0846

## RRIRMRPPRLPRPRPRPDAIPRP
  shrunken log2 fold change: 0.164

## RRIRMRPPRLPRPRPRPDANPRP
  shrunken log2 fold change: 3.18

## RRIRMRPPRLPRPRPRPDCEPRP
  shrunken log2 fold change: 2.29

## RRIRMRPPRLPRPRPRPDCNPRP
  shrunken log2 fold change: 2.08

## RRIRMRPPRLPRPRPRPDCYPRP
  shrunken log2 fold change: -0.15

## RRIRMRPPRLPRPRPRPDEAPRP
  shrunken log2 fold change: 2.2

## RRIRMRPPRLPRPRPRPDEGPRP
  shrunken log2 fold change: -0.0141

## RRIRMRPPRLPRPRPRPDFSPRP
  shrunken log2 fold change: 0.0199

## RRIRMRPPRLPRPRPRPDGMPRP
  shrunken log2 fold change: 1.73

## RRIRMRPPRLPRPRPRPDIRPRP
  shrunken log2 fold change: -0.00649

## RRIRMRPPRLPRPRPRPDKIPRP
  shrunken log2 fold change: 0.179

## RRIRMRPPRLPRPRPRPDLMPRP
  shrunken log2 fold change: -0.0157

## RRIRMRPPRLPRPRPRPDNEPRP
  shrunken log2 fold change: 0.379

## RRIRMRPPRLPRPRPRPDPDPRP
  shrunken log2 fold change: 0.634

## RRIRMRPPRLPRPRPRPDPYPRP
  shrunken log2 fold change: -0.0396

## RRIRMRPPRLPRPRPRPDQHPRP
  shrunken log2 fold change: 0.237

## RRIRMRPPRLPRPRPRPDQIPRP
  shrunken log2 fold change: 0.0408

## RRIRMRPPRLPRPRPRPDSDPRP
  shrunken log2 fold change: 2.6

## RRIRMRPPRLPRPRPRPDSKPRP
  shrunken log2 fold change: 0.732

## RRIRMRPPRLPRPRPRPDTCPRP
  shrunken log2 fold change: 1.25

## RRIRMRPPRLPRPRPRPDTRPRP
  shrunken log2 fold change: -0.0141

## RRIRMRPPRLPRPRPRPDVDPRP
  shrunken log2 fold change: 0.104

## RRIRMRPPRLPRPRPRPDWMPRP
  shrunken log2 fold change: -0.0455

## RRIRMRPPRLPRPRPRPDWPPRP
  shrunken log2 fold change: 0.637

## RRIRMRPPRLPRPRPRPDYMPRP
  shrunken log2 fold change: -0.00256

## RRIRMRPPRLPRPRPRPEAPPRP
  shrunken log2 fold change: 3.4

## RRIRMRPPRLPRPRPRPEARPRP
  shrunken log2 fold change: 1.76

## RRIRMRPPRLPRPRPRPECWPRP
  shrunken log2 fold change: 2.25

## RRIRMRPPRLPRPRPRPECYPRP
  shrunken log2 fold change: -0.192

## RRIRMRPPRLPRPRPRPEDCPRP
  shrunken log2 fold change: 0.0737

## RRIRMRPPRLPRPRPRPEDTPRP
  shrunken log2 fold change: 1.94

## RRIRMRPPRLPRPRPRPEEEPRP
  shrunken log2 fold change: 0.0412

## RRIRMRPPRLPRPRPRPEEWPRP
  shrunken log2 fold change: 0.00599

## RRIRMRPPRLPRPRPRPEFFPRP
  shrunken log2 fold change: 0.277

## RRIRMRPPRLPRPRPRPEGIPRP
  shrunken log2 fold change: 2.03

## RRIRMRPPRLPRPRPRPEHQPRP
  shrunken log2 fold change: 0.0185

## RRIRMRPPRLPRPRPRPEIYPRP
  shrunken log2 fold change: 0.106

## RRIRMRPPRLPRPRPRPELHPRP
  shrunken log2 fold change: 0.397

## RRIRMRPPRLPRPRPRPENWPRP
  shrunken log2 fold change: 0.795

## RRIRMRPPRLPRPRPRPERGPRP
  shrunken log2 fold change: 1.39

## RRIRMRPPRLPRPRPRPERVPRP
  shrunken log2 fold change: 2.69

## RRIRMRPPRLPRPRPRPETDPRP
  shrunken log2 fold change: 1.77

## RRIRMRPPRLPRPRPRPETTPRP
  shrunken log2 fold change: 3.65

## RRIRMRPPRLPRPRPRPEVKPRP
  shrunken log2 fold change: 2.97

## RRIRMRPPRLPRPRPRPEWLPRP
  shrunken log2 fold change: 0.056

## RRIRMRPPRLPRPRPRPFAIPRP
  shrunken log2 fold change: -0.0351

## RRIRMRPPRLPRPRPRPFATPRP
  shrunken log2 fold change: 0.609

## RRIRMRPPRLPRPRPRPFCKPRP
  shrunken log2 fold change: -0.224

## RRIRMRPPRLPRPRPRPFCLPRP
  shrunken log2 fold change: -0.15

## RRIRMRPPRLPRPRPRPFCWPRP
  shrunken log2 fold change: 0.421

## RRIRMRPPRLPRPRPRPFFKPRP
  shrunken log2 fold change: -0.116

## RRIRMRPPRLPRPRPRPFFLPRP
  shrunken log2 fold change: -0.199

## RRIRMRPPRLPRPRPRPFFSPRP
  shrunken log2 fold change: 0.195

## RRIRMRPPRLPRPRPRPFGFPRP
  shrunken log2 fold change: -0.0868

## RRIRMRPPRLPRPRPRPFGIPRP
  shrunken log2 fold change: 0.0278

## RRIRMRPPRLPRPRPRPFGSPRP
  shrunken log2 fold change: 0.00388

## RRIRMRPPRLPRPRPRPFHFPRP
  shrunken log2 fold change: -0.313

## RRIRMRPPRLPRPRPRPFKCPRP
  shrunken log2 fold change: -0.0731

## RRIRMRPPRLPRPRPRPFMKPRP
  shrunken log2 fold change: -0.0288

## RRIRMRPPRLPRPRPRPFNNPRP
  shrunken log2 fold change: -0.296

## RRIRMRPPRLPRPRPRPFPGPRP
  shrunken log2 fold change: -0.0808

## RRIRMRPPRLPRPRPRPFPHPRP
  shrunken log2 fold change: -0.0309

## RRIRMRPPRLPRPRPRPFQQPRP
  shrunken log2 fold change: -0.00146

## RRIRMRPPRLPRPRPRPFQVPRP
  shrunken log2 fold change: 0.0921

## RRIRMRPPRLPRPRPRPFQYPRP
  shrunken log2 fold change: 0.00421

## RRIRMRPPRLPRPRPRPFTLPRP
  shrunken log2 fold change: -0.0107

## RRIRMRPPRLPRPRPRPFWGPRP
  shrunken log2 fold change: -0.149

## RRIRMRPPRLPRPRPRPFWKPRP
  shrunken log2 fold change: 0.072

## RRIRMRPPRLPRPRPRPFWRPRP
  shrunken log2 fold change: 0.463

## RRIRMRPPRLPRPRPRPFWTPRP
  shrunken log2 fold change: 0.0652

## RRIRMRPPRLPRPRPRPFWYPRP
  shrunken log2 fold change: -0.0609

## RRIRMRPPRLPRPRPRPFYAPRP
  shrunken log2 fold change: -0.47

## RRIRMRPPRLPRPRPRPGAGPRP
  shrunken log2 fold change: 1.22

## RRIRMRPPRLPRPRPRPGAKPRP
  shrunken log2 fold change: 1.48

## RRIRMRPPRLPRPRPRPGCHPRP
  shrunken log2 fold change: 0.0532

## RRIRMRPPRLPRPRPRPGDEPRP
  shrunken log2 fold change: 0.818

## RRIRMRPPRLPRPRPRPGDMPRP
  shrunken log2 fold change: 0.484

## RRIRMRPPRLPRPRPRPGERPRP
  shrunken log2 fold change: 0.772

## RRIRMRPPRLPRPRPRPGGDPRP
  shrunken log2 fold change: 1.58

## RRIRMRPPRLPRPRPRPGGFPRP
  shrunken log2 fold change: 1.06

## RRIRMRPPRLPRPRPRPGGGPRP
  shrunken log2 fold change: 1.67

## RRIRMRPPRLPRPRPRPGHAPRP
  shrunken log2 fold change: 2.85

## RRIRMRPPRLPRPRPRPGIVPRP
  shrunken log2 fold change: 0.332

## RRIRMRPPRLPRPRPRPGLTPRP
  shrunken log2 fold change: 1.02

## RRIRMRPPRLPRPRPRPGNEPRP
  shrunken log2 fold change: 1.05

## RRIRMRPPRLPRPRPRPGPNPRP
  shrunken log2 fold change: 0.641

## RRIRMRPPRLPRPRPRPGSHPRP
  shrunken log2 fold change: 0.0978

## RRIRMRPPRLPRPRPRPGTFPRP
  shrunken log2 fold change: -0.0326

## RRIRMRPPRLPRPRPRPGVNPRP
  shrunken log2 fold change: -0.0818

## RRIRMRPPRLPRPRPRPGVRPRP
  shrunken log2 fold change: 1.42

## RRIRMRPPRLPRPRPRPGWCPRP
  shrunken log2 fold change: 0.181

## RRIRMRPPRLPRPRPRPGWVPRP
  shrunken log2 fold change: 0.0878

## RRIRMRPPRLPRPRPRPHAQPRP
  shrunken log2 fold change: -0.015

## RRIRMRPPRLPRPRPRPHDWPRP
  shrunken log2 fold change: 1.45

## RRIRMRPPRLPRPRPRPHEEPRP
  shrunken log2 fold change: 0.053

## RRIRMRPPRLPRPRPRPHEGPRP
  shrunken log2 fold change: 0.443

## RRIRMRPPRLPRPRPRPHERPRP
  shrunken log2 fold change: 1.04

## RRIRMRPPRLPRPRPRPHFDPRP
  shrunken log2 fold change: -0.0378

## RRIRMRPPRLPRPRPRPHHAPRP
  shrunken log2 fold change: 0.0324

## RRIRMRPPRLPRPRPRPHHRPRP
  shrunken log2 fold change: -0.0556

## RRIRMRPPRLPRPRPRPHIAPRP
  shrunken log2 fold change: 0.13

## RRIRMRPPRLPRPRPRPHILPRP
  shrunken log2 fold change: 0.113

## RRIRMRPPRLPRPRPRPHIWPRP
  shrunken log2 fold change: -0.0244

## RRIRMRPPRLPRPRPRPHKTPRP
  shrunken log2 fold change: 0.0147

## RRIRMRPPRLPRPRPRPHLEPRP
  shrunken log2 fold change: 0.0983

## RRIRMRPPRLPRPRPRPHLLPRP
  shrunken log2 fold change: 0.137

## RRIRMRPPRLPRPRPRPHQHPRP
  shrunken log2 fold change: -0.0409

## RRIRMRPPRLPRPRPRPHQTPRP
  shrunken log2 fold change: 0.184

## RRIRMRPPRLPRPRPRPHQYPRP
  shrunken log2 fold change: -0.41

## RRIRMRPPRLPRPRPRPHSGPRP
  shrunken log2 fold change: 0.00795

## RRIRMRPPRLPRPRPRPHSNPRP
  shrunken log2 fold change: 0.0878

## RRIRMRPPRLPRPRPRPHVFPRP
  shrunken log2 fold change: 0.0558

## RRIRMRPPRLPRPRPRPHVSPRP
  shrunken log2 fold change: -0.0138

## RRIRMRPPRLPRPRPRPHYSPRP
  shrunken log2 fold change: -0.624
